Non-standard residues stand in square brackets, D forms with d. *: point of attachment. Bpa = N[C@@H](Cc1ccc(C(=O)c2ccccc2)cc1)C(=O)O; d1Nal = N[C@H](Cc1cccc2ccccc12)C(=O)O; d2Nal = N[C@H](Cc1ccc2ccccc2c1)C(=O)O; d3Pal = N[C@H](Cc1cccnc1)C(=O)O; His(1-Me) = 1-methylhistidine; DO3A10CM = not defined here; Nicotinoyl = O=C(c1cccnc1)*; Bzgly = not defined here; dCfe4 = not defined here; Afe4 = not defined here; azaGly = NNC(=O)O; Sar = CNCC(=O)O; iPr = CC(C)*
Columns and labels:
[1] = molecular target: LHRH receptor (LHRH binding sites) on EFO-27 human ovarian cancer cells (human); experiment: direct binding of 177Lu-labeled peptide to EFO-27 cells, single concentration
[2] = molecular target: LHRH receptor (LHRH binding sites) on EFO-27 human ovarian cancer cells (human); experiment: competition with [125I-Tyr8]BRU-2477, EFO-27 cells
[3] = molecular target: LHRH receptor (LHRH binding sites) on EFO-27 human ovarian cancer cells (human); experiment: competition with [125I-Tyr8]BRU-2477 for binding to EFO-27 cells
[4] = molecular target: LHRH binding sites on EFO-27 human ovarian cancer cells (human); experiment: competition with [125I-Tyr8]BRU-2477 on EFO-27 cells

Row | % Bound [1] [%] | Binder | further results
1 | 0.79 | XHWSHXWXPX (177Lu held by the N-terminal DO3A10CM: 177Lu-DO3A10CM-Sar-His-Trp-Ser-His-Darg-Trp-Dip-Pro-azaGly-NH2) [^177Lu-BRU-2721] | 
2 |  | XRWSHXWXP (as printed: Sar-R-W-S-H-Darg-W-Bpa4-P-Bampy26-DO3A10CM (C-terminal chelator)) [BRU-3080] | EC50 [2]: 230 nM; EC50 [3]: 230 nM
3 |  | XRWSHXWXP (as printed: Sar-R-W-S-H-Darg-W-Bpa4-P-Dae-DO3A10CM (C-terminal chelator)) [BRU-3103] | EC50 [2]: 170 nM; EC50 [3]: 170 nM
4 | 10.3 | DO3A10CM-G[d1Nal]HWSH[dR]W[Bpa]P[azaGly]-NH2 (reading uncertain; also: 177Lu complexed by DO3A10CM, printed as 177Lu-DO3A10CM-Gly-Dnal1-His-Trp-Ser-His-Darg-Trp-Bpa4-Pro-azaGly-NH2) [^177Lu-BRU-2766] | 
5 | 3.4 | XHWSHXWXPX (177Lu held by the N-terminal DO3A10CM: 177Lu-DO3A10CM-Dphe-His-Trp-Ser-His-Darg-Trp-Bpa4-Pro-azaGly-NH2) [^177Lu-BRU-2894] | 
6 |  | XRWSHXWXP (as printed: Sar-R-W-S-H-Darg-W-Bpa4-P-Ampip2-DO3A10CM (C-terminal chelator)) [BRU-3102] | EC50 [2]: 200 nM; EC50 [3]: 200 nM
7 | 1.8 | XHWSHXWXPX (177Lu held by the N-terminal DO3A10CM: 177Lu-DO3A10CM-Sar-His-Trp-Ser-His-Darg-Trp-Bpa4-Pro-azaGly-NH2) [^177Lu-BRU-2443] | 
8 | 1.35 | DO3A10CM-[Sar][His(1-Me)]WSH[dR]W[Bpa]P[azaGly]-NH2 (reading uncertain; also: 177Lu complexed by DO3A10CM, printed as 177Lu-DO3A10CM-Sar-His(1-Me)-Trp-Ser-His-Darg-Trp-Bpa4-Pro-azaGly-NH2) [^177Lu-BRU-2741] | 
9 | 4.03 | XHWSHXWXPX (177Lu held by the N-terminal DO3A10CM: 177Lu-DO3A10CM-Sar-His-Trp-Ser-His-Darg-Trp-Nal2-Pro-azaGly-NH2) [^177Lu-BRU-2624] | 
10 | 0.94 | XXHWSHXWXPX (177Lu held by the N-terminal DO3A10CM: 177Lu-DO3A10CM-Gly-Abz4-Sar-His-Trp-Ser-His-Darg-Trp-Bpa4-Pro-azaGly-NH2) [^177Lu-BRU-2696] | 
11 |  | XHWSHXWXPX (as printed: DO3A10CM-Dnal1-His-Trp-Ser-His-Darg-Trp-Bpa4-Pro-azaGly-NH2) [BRU-2869] | EC50 [2]: 360 nM; EC50 [4]: 360 nM; EC50 [3]: 360 nM
12 | 0.36 | XHWSHXWXPX (177Lu held by the N-terminal DO3A10CM: 177Lu-DO3A10CM-Sar-His-Trp-Ser-His-Darg-Trp-F5fe-Pro-azaGly-NH2) [^177Lu-BRU-2722] | 
13 | 1.62 | XHWSHXWXPX (177Lu held by the N-terminal DO3A10CM: 177Lu-DO3A10CM-Meala-His-Trp-Ser-His-Darg-Trp-Bpa4-Pro-azaGly-NH2) [^177Lu-BRU-2736] | 
14 | 0.7 | XHWSHXWXPX (177Lu held by the N-terminal DO3A10CM: 177Lu-DO3A10CM-Adoa-Adoa-Sar-His-Trp-Ser-His-Darg-Trp-Bpa4-Pro-azaGly-NH2) [^177Lu-BRU-2896] | 
15 | 5.8 | DO3A10CM-[d2Nal][Afe4]WSH[dR]W[Bpa]P[azaGly]-NH2 (reading uncertain; also: 177Lu held by N-terminal DO3A10CM, printed as 177Lu-DO3A10CM-Dnal2-Afe4-Trp-Ser-His-Darg-Trp-Bpa4-Pro-azaGly-NH2) [^177Lu-BRU-2812] | 
16 | 0.21 | DO3A10CM-[Sar]HWSH[dR]WYP[azaGly]-NH2 (reading uncertain; also: 177Lu complexed by DO3A10CM, printed as 177Lu-DO3A10CM-Sar-His-Trp-Ser-His-Darg-Trp-Tyr-Pro-azaGly-NH2) [^177Lu-BRU-2440] | 
17 | 0.125 | XHWSHXWXPX (177Lu held by the N-terminal DO3A10CM: 177Lu-DO3A10CM-Sar-His-Trp-Ser-His-Darg-Trp-Tha-Pro-azaGly-NH2) [^177Lu-BRU-2742] | 
18 |  | XRWSHXWX (as printed: Sar-R-W-S-H-Darg-W-Bpa4-Am2prd-DO3A10CM (C-terminal chelator)) [BRU-3117] | EC50 [2]: 340 nM; EC50 [3]: 340 nM
19 | 0.41 | XHWSHXWXPX (177Lu held by the N-terminal DO3A10CM: 177Lu-DO3A10CM-Sar-His-Trp-Ser-His-Darg-Trp-Cfe4-Pro-azaGly-NH2) [^177Lu-BRU-2725] | 
20 |  | XRWSHXWXP (as printed: Sar-R-W-S-H-Darg-W-Bpa4-P-Dapt15-DO3A10CM (C-terminal chelator)) [BRU-3085] | EC50 [2]: 400 nM; EC50 [3]: 400 nM
21 | 2.13 | DO3A10CM-G[d2Nal][dCfe4][d3Pal]SH[dR]WYP[dA]-NH2 (reading uncertain; also: 177Lu complexed by DO3A10CM, printed as 177Lu-DO3A10CM-Gly-Dnal2-Dcfe4-Dpal3-Ser-His-Darg-Trp-Tyr-Pro-Dala-NH2) [^177Lu-BRU-2644] | 
22 | 1.28 | DO3A10CM-G[Bzgly]HWSH[dR]W[Bpa]P[azaGly]-NH2 (reading uncertain; also: 177Lu complexed by DO3A10CM, printed as 177Lu-DO3A10CM-Gly-Bzgly-His-Trp-Ser-His-Darg-Trp-Bpa4-Pro-azaGly-NH2) [^177Lu-BRU-2792] | 
23 | 1.06 | DO3A10CM-[Sar]HWSH[dR]WP[azaGly]-NH2 (reading uncertain; also: 177Lu complexed by DO3A10CM, printed as 177Lu-DO3A10CM-Sar-His-Trp-Ser-His-Darg-Trp-azaG-NH2) [^177Lu-BRU-2767] | 
24 | 2.4 | XHWSHXWXPX (177Lu held by the N-terminal DO3A10CM: 177Lu-DO3A10CM-Dafe4-His-Trp-Ser-His-Darg-Trp-Bpa4-Pro-azaGly-NH2) [^177Lu-BRU-2810] | 
25 | 9.2 | XHWSHXWXPX (177Lu held by the N-terminal DO3A10CM: 177Lu-DO3A10CM-Dnal1-His-Trp-Ser-His-Darg-Trp-Bpa4-Pro-azaGly-NH2) [^177Lu-BRU-2869] | 
26 | 1 | XHWSHXWXPX (177Lu held by the N-terminal DO3A10CM: 177Lu-DO3A10CM-Sar-His-Trp-Ser-His-Darg-Trp-Thy-Pro-azaGly-NH2) [^177Lu-BRU-2823] | 
27 | 0.17 | DO3A10CM-G[Sar][dCfe4][d1Nal]S[Metyr][dK](Nicotinoyl)LK(iPr)P[dA]-NH2 (reading uncertain; also: 177Lu complexed by DO3A10CM, printed as 177Lu-DO3A10CM-Gly-Sar-Dcfe4-Dnal1-Ser-Metyr-Dlys(Nic)-Leu-Lys(isp)-Pro-Dala-NH2) [^177Lu-BRU-2613] | 
28 | 1.41 | XFWSHXWXPX (177Lu held by the N-terminal DO3A10CM: 177Lu-DO3A10CM-Sar-Phe-Trp-Ser-His-Darg-Trp-Bpa4-Pro-azaGly-NH2) [^177Lu-BRU-2738] | 
29 |  | XRWSHXWXP (as printed: DO3A10CM-Dnal2-Arg-Trp-Ser-His-Darg-Trp-Bpa4-Pro-Da15o3pt (C-terminal amide of 1,5-diamino-3-oxapentane)) [BRU-2968] | EC50 [2]: 240 nM; EC50 [4]: 240 nM; EC50 [3]: 240 nM
